The record followed here is patent US20040233833A1, “Methods for identifying compounds with thrapeutic potential for treatment of central Neurodegenerative diseases resulting from abnormal protein or peptide accumulation” (priority 2001, published 2004).

Sequence of REGγ (wild-type) (P61289 whole entry): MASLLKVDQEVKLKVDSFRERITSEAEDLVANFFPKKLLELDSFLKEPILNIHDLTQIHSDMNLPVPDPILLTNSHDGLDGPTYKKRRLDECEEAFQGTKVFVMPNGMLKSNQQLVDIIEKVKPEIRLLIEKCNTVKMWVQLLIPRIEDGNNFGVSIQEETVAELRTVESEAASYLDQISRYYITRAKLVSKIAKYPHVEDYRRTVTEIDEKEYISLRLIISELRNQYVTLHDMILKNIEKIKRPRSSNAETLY

The target in one assay is 20S proteasome (human red blood cell proteasomes) (human). The experiment in a line: competition assay with REGα(N146Y)/REGβ(N135Y) as competitor for the proteasome.
In turn, REGα (from UniProt Q06323 1-249) had a Relative affinity for proteasome (% of wild-type REGγ) of 0. Still for that read-out and setting: with “REGγ (wild-type) (from UniProt P61289 1-254)” the figure was 100.

On to REGγ(K188A) (from UniProt P61289 1-254), for which the Relative affinity for proteasome (% of wild-type REGγ) came out at 60. Same read-out and setting: as for REGγ(K188C) (from UniProt P61289 1-254), the figure is 60. On to REGγ(K188D) (from UniProt P61289 1-254), for which the Relative affinity for proteasome (% of wild-type REGγ) is 90. On the same count and under the same terms, with REGγ(K188E) (from UniProt P61289 1-254) the figure was 90; with REGγ(K188F) (from UniProt P61289 1-254), 40; with REGγ(K188H) (from UniProt P61289 1-254), 50. The same measure, in the same setting: with REGγ(K188I) (from UniProt P61289 1-254) the figure was 60; with REGγ(K188N) (from UniProt P61289 1-254), 75; with REGγ(K188P) (from UniProt P61289 1-254), 40.

As to REGγ(K188Q) (from UniProt P61289 1-254), the Relative affinity for proteasome (% of wild-type REGγ) came out at 75. The same measure, in the same setting: as for REGγ(K188R) (from UniProt P61289 1-254), the figure is 75; as for REGγ(K188S) (from UniProt P61289 1-254), 50.

The next assay shares this target. The experiment in a line: cell-based or functional assay.
Regarding “REGγ (wild-type) (from UniProt P61289 1-254)”, the half-life of the 49-residue peptide BBC1 with the proteasome amounted to 45 min; the rate of CT/PGPH labeling by 125I-YL3-VS, fold over proteasome alone came to 4.4 fold; the rate of T-subunit labeling by 125I-YL3-VS, fold over proteasome alone worked out at 4.7 fold. REGγ(K188E) (from UniProt P61289 1-254) had a rate of CT/PGPH labeling by 125I-YL3-VS, fold over proteasome alone of 11.9 fold and a rate of T-subunit labeling by 125I-YL3-VS, fold over proteasome alone of 10.8 fold.
